Assay results taken from patent US20190321401A1 (JUNO THERAPEUTICS, published 2019).

T1: HPV 16 E6 peptide on HLA-A*02:01 (human)
T1 peptide: TIHDIILECV

T2: HPV 16 E7 peptide on HLA-A*02:01 (human)
T2 peptide: YMLDLQPET


How the values were obtained:
[1] = molecular target: T3, HPV16 E7(11-19)-peptide-MHC tetramer complex (human papillomavirus 16 (HPV16); human); experiment: flow cytometry, peptide-MHC tetramer staining of TCR-transduced primary human T cells;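 further: normal donor T cells activated with anti-CD3/anti-CD28, then lentivirally transduced with TCRs, with mock-transduced cells as control, co-stained for the transduction marker and CD8, tetramers presented by HLA-A02:01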
T3 construct: also called E7(11-19)-specific tetramer; MHC/E7(11-19) peptide tetramer
Method: (§1) CD8+ and CD4+ T cells were isolated from normal human donors and were stimulated with anti-CD3/anti-CD28 reagent, and then were transduced with a lentiviral preparation encoding various TCRs, or were subjected to a mock transduction control (cells treated under the same conditions used for lentiviral transduction but without addition of lentivirus). Following transduction, the cells were cultured in media containing human serum and cytokines.
(§2) After transduction, the cells were assessed by flow cytometry for staining with an antibody that recognized the surrogate marker, an anti-CD8 antibody, and a HPV 16 E6(29-38)- or HPV16 E7(11-19)-peptide-MHC tetramer complex. […] The reference TCR contains a mouse constant region.
(§3) Column 3 and 4 sets forth the percentage of CD8+ cells and CD8− cells (CD4+ cells) positive for E7(11-19)-specific tetramer staining in flow cytometry. Column 5 and 6 sets forth the percentage of CD8+ cells and CD8− cells (CD4+ cells) positive for E6(29-38)-specific tetramer staining in flow cytometry.

[2] = molecular target: T4, HPV 16 E6(29-38)-peptide-MHC tetramer complex (human papillomavirus 16 (HPV16); human); experiment: as above
T4 construct: also called E6(29-38)-specific tetramer
Method: as §1, §2, §3

[3] = molecular target: T1, HPV 16 E6 peptide on HLA-A*02:01; experiment: multimer staining
[4] = molecular target: T2, HPV 16 E7 peptide on HLA-A*02:01; experiment: multimer staining

Binder	% of CD8+ cells positive for E7(11-19) tetramer staining [1]	% of CD8- (CD4+) cells positive for E7(11-19) tetramer staining [1]	% of CD8+ cells positive for E6(29-38) tetramer staining [2]	% of CD8- (CD4+) cells positive for E6(29-38) tetramer staining [2]	binding result [3]	binding result [4]
TCR 63 (mouse constant regions) (TCR, V domains shown) V domain 1: SQELEQSPQSLIVQEGKNLTINCTSSKTLYGLYWYKQKYGEGLIFLMMLQKGGEEKSHEKITAKLDEKKQQSSLHITASQPSHAGIYLCGADIDDYKLSFGAGTTVTVRA V domain 2: GAGVSQSPRYKVAKRGQDVALRCDPISGHVSLFWYQQALGQGPEFLTYFQNEAQLDKSGLPSDRFFAERPEGSVSTLKIQRTQQEDSAVYLCASRPRQGYNDNEQFFGPGTRLTVLE	0.3%	0.25%	0.23%	0.12%	–	–
TCR 63 (TCR, V domains shown) Valpha: SQELEQSPQSLIVQEGKNLTINCTSSKTLYGLYWYKQKYGEGLIFLMMLQKGGEEKSHEKITAKLDEKKQQSSLHITASQPSHAGIYLCGADIDDYKLSFGAGTTVTVRA Vbeta: GAGVSQSPRYKVAKRGQDVALRCDPISGHVSLFWYQQALGQGPEFLTYFQNEAQLDKSGLPSDRFFAERPEGSVSTLKIQRTQQEDSAVYLCASRPRQGYNDNEQFFGPGTRLTVL	–	–	–	–	no recognition	–
TCR 64 (mouse constant regions) (TCR, V domains shown) V domain 1: AQKVTQAQTEISVVEKEDVTLDCVYETRDTTYYLFWYKQPPSGELVFLIRRNSFDEQNEISGRYSWNFQKSTSSFNFTITASQVVDSAVYFCALSGVDNYGQNFVFGPGTRLSVLP V domain 2: DTAVSQTPKYLVTQMGNDKSIKCEQNLGHDTMYWYKQDSKKFLKIMFSYNNKELIINETVPNRFSPKSPDKAHLNLHINSLELGDSAVYFCASSQGEAGANVLTFGAGSRLTVLE	0.13%	0.06%	0.17%	0.11%	–	–
TCR 64 (TCR, V domains shown) Valpha: AQKVTQAQTEISVVEKEDVTLDCVYETRDTTYYLFWYKQPPSGELVFLIRRNSFDEQNEISGRYSWNFQKSTSSFNFTITASQVVDSAVYFCALSGVDNYGQNFVFGPGTRLSVLP Vbeta: DTAVSQTPKYLVTQMGNDKSIKCEQNLGHDTMYWYKQDSKKFLKIMFSYNNKELIINETVPNRFSPKSPDKAHLNLHINSLELGDSAVYFCASSQGEAGANVLTFGAGSRLTVL	–	–	–	–	no recognition	–
TCR 62 (mouse constant regions) (TCR, V domains shown) V domain 1: AQTVTQSQPEMSVQEAETVTLSCTYDTSENNYYLFWYKQPPSRQMILVIRQEAYKQQNATENRFSVNFQKAAKSFSLKISDSQLGDTAMYFCALYTYKYIFGTGTRLKVLA V domain 2: EAGVAQSPRYKIIEKRQSVAFWCNPISGHATLYWYQQILGQGPKLLIQFQNNGVVDDSQLPKDRFSAERLKGVDSTLKIQPAKLEDSAVYLCASSLDTRGSSYNEQFFGPGTRLTVLE	38.8%	0.07%	0.2%	0.04%	–	–
TCR 57 (mouse constant regions) (TCR, V domains shown) V domain 1: TQLLEQSPQFLSIQEGENLTVYCNSSSVFSSLQWYRQEPGEGPVLLVTVVTGGEVKKLKRLTFQFGDARKDSSLHITAAQPGDTGLYLCAGARNFNKFYFGSGTKLNVKP V domain 2: GAVVSQHPSWVICKSGTSVKIECRSLDFQATTMFWYRQFPKQSLMLMATSNEGSKATYEQGVEKDKFLINHASLTLSTLTVTSAHPEDSSFYICSARSWRGGLEQFFGPGTRLTVLE	95%	86%	0.23%	0.19%	–	–
TCR 56 (mouse constant regions) (TCR, V domains shown, Human variable regions on mouse constant regions with added cysteines (Calpha Thr48Cys, Cbeta Ser57Cys); Entries are the full chains without signal peptide) V domain 1: GQNIDQPTEMTATEGAIVQINCTYQTSGFNGLFWYQQHAGEAPTFLSYNVLDGLEEKGRFSSFLSRSKGYSYLLLKELQMKDSASYLCAVRDWGYGGATNKLIFGTGTLLAVQP V domain 2: NAGVMQNPRHLVRRRGQEARLRCSPMKGHSHVYWYRQLPEEGLKFMVYLQKENIIDESGMPKERFSAEFPKEGPSILRIQQVVRGDSAAYFCASSPDESRDSNQPQHFGDGTRLSILE	0.05%	0.13%	0.07%	0.12%	–	–
TCR 56 (TCR, V domains shown) Valpha: GQNIDQPTEMTATEGAIVQINCTYQTSGFNGLFWYQQHAGEAPTFLSYNVLDGLEEKGRFSSFLSRSKGYSYLLLKELQMKDSASYLCAVRDWGYGGATNKLIFGTGTLLAVQP Vbeta: NAGVMQNPRHLVRRRGQEARLRCSPMKGHSHVYWYRQLPEEGLKFMVYLQKENIIDESGMPKERFSAEFPKEGPSILRIQQVVRGDSAAYFCASSPDESRDSNQPQHFGDGTRLSIL	–	–	–	–	no recognition	no recognition
TCR 59 (TCR, V domains shown) Valpha: GQQVMQIPQYQHVQEGEDFTTYCNSSTTLSNIQWYKQRPGGHPVFLIQLVKSGEVKKQKRLTFQFGEAKKNSSLHITATQTTDVGTYFCAPKREYGNKLVFGAGTILRVKS Vbeta: EPEVTQTPSHQVTQMGQEVILRCVPISNHLYFYWYRQILGQKVEFLVSFYNNEISEKSEIFDDQFSVERPDGSNFTLKIRSTKLEDSAMYFCAYSGRASYEQYFGPGTRLTVT	–	–	–	–	no recognition	recognises
TCR 60 (TCR, V domains shown) Valpha: QKEVEQNSGPLSVPEGAIASLNCTYSDRGSQSFFWYRQYSGKSPELIMFIYSNGDKEDGRFTAQLNKASQYVSLLIRDSQPSDSATYLCAVNMLGSGGSNYKLTFGKGTLLTVNP Vbeta: EPEVTQTPSHQVTQMGQEVILRCVPISNHLYFYWYRQILGQKVEFLVSFYNNEISEKSEIFDDQFSVERPDGSNFTLKIRSTKLEDSAMYFCAISRTVSYEQYFGPGTRLTVT	–	–	–	–	no recognition	recognises
TCR 61 (TCR, V domains shown) Valpha: QKEVEQNSGPLSVPEGAIASLNCTYSDRGSQSFFWYRQYSGKSPELIMFIYSNGDKEDGRFTAQLNKASQYVSLLIRDSQPSDSATYLCAVNIENNNARLMFGDGTQLVVKP Vbeta: EPEVTQTPSHQVTQMGQEVILRCVPISNHLYFYWYRQILGQKVEFLVSFYNNEISEKSEIFDDQFSVERPDGSNFTLKIRSTKLEDSAMYFCASTKRFSYEQYFGPGTRLTVT	–	–	–	–	no recognition	recognises
TCR 58 (mouse constant regions) (TCR, V domains shown) V domain 1: RKEVEQDPGPFNVPEGATVAFNCTYSNSASQSFFWYRQDCRKEPKLLMSVYSSGNEDGRFTAQLNRASQYISLLIRDSKLSDSATYLCVVNRDNYGQNFVFGPGTRLSVLP V domain 2: EPEVTQTPSHQVTQMGQEVILRCVPISNHLYFYWYRQILGQKVEFLVSFYNNEISEKSEIFDDQFSVERPDGSNFTLKIRSTKLEDSAMYFCASTPRSSYEQYFGPGTRLTVTE	9.91%	0.1%	0.14%	0.11%	–	–
TCR 61 (mouse constant regions) (TCR, V domains shown) V domain 1: QKEVEQNSGPLSVPEGAIASLNCTYSDRGSQSFFWYRQYSGKSPELIMFIYSNGDKEDGRFTAQLNKASQYVSLLIRDSQPSDSATYLCAVNIENNNARLMFGDGTQLVVKP V domain 2: EPEVTQTPSHQVTQMGQEVILRCVPISNHLYFYWYRQILGQKVEFLVSFYNNEISEKSEIFDDQFSVERPDGSNFTLKIRSTKLEDSAMYFCASTKRFSYEQYFGPGTRLTVTE	17.2%	0.13%	0.15%	0.12%	–	–
TCR 60 (mouse constant regions) (TCR, V domains shown) V domain 1: QKEVEQNSGPLSVPEGAIASLNCTYSDRGSQSFFWYRQYSGKSPELIMFIYSNGDKEDGRFTAQLNKASQYVSLLIRDSQPSDSATYLCAVNMLGSGGSNYKLTFGKGTLLTVNP V domain 2: EPEVTQTPSHQVTQMGQEVILRCVPISNHLYFYWYRQILGQKVEFLVSFYNNEISEKSEIFDDQFSVERPDGSNFTLKIRSTKLEDSAMYFCAISRTVSYEQYFGPGTRLTVTE	21.5%	0.13%	0.15%	0.07%	–	–
TCR 58 (TCR, V domains shown) Valpha: RKEVEQDPGPFNVPEGATVAFNCTYSNSASQSFFWYRQDCRKEPKLLMSVYSSGNEDGRFTAQLNRASQYISLLIRDSKLSDSATYLCVVNRDNYGQNFVFGPGTRLSVLP Vbeta: EPEVTQTPSHQVTQMGQEVILRCVPISNHLYFYWYRQILGQKVEFLVSFYNNEISEKSEIFDDQFSVERPDGSNFTLKIRSTKLEDSAMYFCASTPRSSYEQYFGPGTRLTVT	–	–	–	–	no recognition	recognises
TCR 59 (mouse constant regions) (TCR, V domains shown) V domain 1: GQQVMQIPQYQHVQEGEDFTTYCNSSTTLSNIQWYKQRPGGHPVFLIQLVKSGEVKKQKRLTFQFGEAKKNSSLHITATQTTDVGTYFCAPKREYGNKLVFGAGTILRVKS V domain 2: EPEVTQTPSHQVTQMGQEVILRCVPISNHLYFYWYRQILGQKVEFLVSFYNNEISEKSEIFDDQFSVERPDGSNFTLKIRSTKLEDSAMYFCAYSGRASYEQYFGPGTRLTVTE	28%	0.16%	0.11%	0.16%	–	–
TCR 65 (mouse constant regions) (TCR, V domains shown) V domain 1: EDQVTQSPEALRLQEGESSSLNCSYTVSGLRGLFWYRQDPGKGPEFLFTLYSAGEEKEKERLKATLTKKESFLHITAPKPEDSATYLCAVQAERGSTLGRLYFGRGTQLTVWP V domain 2: DVKVTQSSRYLVKRTGEKVFLECVQDMDHENMFWYRQDPGLGLRLIYFSYDVKMKEKGDIPEGYSVSREKKERFSLILESASTNQTSMYLCASSLWGRRNTGELFFGEGSRLTVLE	0.26%	0.07%	–	–	–	–
